Data published in the DeepSol protein solubility set.

Assay: soluble on expression in E. coli; label from the status in PepcDB or PDB records

Soluble on expression in E. coli, not soluble:
MGSDKIHHHHHHMDFAAIDKQISALEACIDSTVEVTPGEQLSVGVDLGTAYIVVVVLNAAGSPVACAMEFAQVIKDGLVVDYVGATRIVRRLVQQLEERLGRQLTHAAIAVPPGTGHKDSNTHRHVVEGAGLEVTAILDEPTAANAVLGVQNGVIVDIGGGTTGLSVIEDGKVTYVADEPTGGTHVSLVLAGSYRISFTEAEELKKDQDRQREILPVVRPVIQKMASIVNRHIEGRDISAIYLVGGTCCLKDFETVFEKETGRPVYKPANPFLVTPLGIALNCNA
MGSDKIHHHHHHMDFDTGRRIDRRAIPADAVEGTWTASDGHPIRRIDWPGHSEPDAPTAPRGSLLFLPGRGDFYEKYLESLDYWHCEGWRVTALDWRGQAGSGRLSSDPMTGHVPDFGLWLDDLGAFWTDWVRDTPGPHVVVGHSMGGHLVLRALAERRIDPAAVVLSAPMLGFLTPGPNRVLHRVAEFMCRIGDPERSAWKSSEKPGATTAARNTLLTHDEARYGDETHWKTVRPELAMGPGSWRWVERAYASMLVLDRPGLLEAVDVPVLLLAARHDGLVSWRAIERAARRLPRAQLMTWGREARHELLREADPVRDKVMHAIDDFLDRLAPPTGEDAPA
MGSDKIHHHHHHMDHIQAMRVFVRIVELGSFSRAAERLALPRATVSNTIKQLEGRLGVRLLQRTTRQVQITDEGRVYYERCLQLLAEIEEIDTLFTQQKLQPVGKVRVDMPHSLAREIVVPALGEFYARYPQVTLMLSANDAAINVLREGVDCVLRAWQTDDETLATRHLPSMPQVTCASADYLARYGVPRSLDELSGHHMVGYFSLRTEYLYPLEFMSGDERITRMLPGTLQVNGADAYIAGACAGLGIIQAPRRGLISLLDGGELVEILPEIPPPAMPLYVMYTPGRFLAPRIRVFIEWLDELFTRNAAVR
MGSDKIHHHHHHMDIEDLRTFVAVADAGGVSAAARRLGISKSIVSRRLFRIEAELGVQLLARTTRGAALTEAGITFRDHAARASAEIDTARETILPAGELHGRLRIAMPLTFGPTHFAPVLAEMARQHPQLHIHTSYSDRFVDLIAEGFDCAIRGAYLQDSNLIAKRVGPIHGKLVASPAYIKAHGSPEMVEQLVNHQALMQGTEAWQFMDGDRIVTVQPQGKFKADSATALAAAAAAGLGIAWLPDCITHAYLASGALVPIMTRYPVPPGAVYVVRPPSQHPARKVRVLTEMLTEYFKRTPELWGVDG
MGSDKIHHHHHHMDINLRFFSRLNPWLNSLFTSKATLKTEIDEAQQGQMSLKTIANQYPLQARRGPITQVMLYQSLYASDDFVGREKQLNQITDVINQWRNHHGEISAIVSPAGSGGSSFLGQLPPLLQTIIADDAKKAPMPDVKPLPSKWLLMSFYQAPLGANGAIAHVCYCFGITPPNTITETIAAINQQPPQLIMIDDMHKLMLRMMGNNQALVTFATIVMETRKHHCWIMGCEIFAWQRLSAQYQIHHFIKHVFQLDYFSETELATIQTKHLLDLGLISNDVMAKETTTTPPNNTNKSTKEQTEQANIEQVDIVNPYKDQLKQLYTISQGHPKLASLLLQYSLAHQVDIGSDNSSNSRSNNGIDICRINSSVLQQCQDNDLFSVAEIYVHGGLRVSQHAHIFAITIEQSSLQLEYLARQGLIIAQYSQQDFAEHFYFITPTLSKIIANHLVNNNKLFN
MGSDKIHHHHHHMDIPWLVERDDRNERIVLSIKTNAKEALENAYRKKSRVTGKMIAYVHDSCANFFCEEGWLQEGAVSTYFHNGQANVFSFFLKEDRQNSDHERLHREVLSYVQKIERTLELSSHAVQRLNEADTDSLAQLYRHVFERYPTDVFSAQYLQQTMKEGAKFVGVKEGTDIICAASAVPNGFGGWEITDCATKKEARGNGYLSSVLCELEQWLWEEGEENVYSITRSHSFGMNVTIKKRGFSYEGTMVNNCIIGTGFEDMNIWTKRLTATNIC
MGSDKIHHHHHHMDKLDNYIVTILEKSITPRKSPFLHTILAGRRTGQAVQDAHLFQMQHLFGLVPNLKLNYLETRLKELMRQGIITVTENGYTVKQKPNFSFEMSFPSFHGFAFQQQVFAFFAHLRLAVQVVSNKHHAEKYYLPVIRDKKVQQFIKIWLQNQQQEDLADRLYIELIKWFNSLAVSRPEFLVERFSGGKLMGYTTEQIATKYQVEKWDVYFEVLHELHRLIAAIKESEEEWPLLASLIPNELMSLTSSAIKTYTLWAKGMDLEMIERIRNLKTSTIQDHFVEIRATLKEAQVPYLPEEELIQSINSRNWHLLRDIKAAFPDLDYYQIRLAVVSKEDEQ
MGSDKIHHHHHHMDLFSAMRIFIRVVERGSMSAAARDLGIGQPAVSERIEKLEAHLGTRLLRRNTRNMSLTQSGNVFYERSKTAVQAAEHALSVNEENQGLQGKIRIAAPYSAGESLLMPALLQLQNEHPELQVDVIFNDRVINPVTEGVDLSLRLGDVSEGFFVARPLGTVRRVLLASPALLAKMGHPDTPDALTDYPFAAVSGVFASNRIQLVASEDQLINVPVNIQFQSTHWRSVLSWLLAGHAIGVLQSPVCRKEIADGALIPLLSHYPIPPFSAWLLHPPAGMMSYETRICASLLEGYIRDLLLEPAG
MGSDKIHHHHHHMDQFDRTPLMTADSEALATARRVLATEARALDSLATSLGDAFLKAVTLIEGAPGRVVVTGMGKSGHVARKIAATMASTGCPAFYVHPAEASHGDLGMVTRDDAVVALSNSGETPELSDVIAYTRRFEIPLIGITSRDGSTLAAASDVALVLPPNPEACPMGLAPTTSTTLMLALGDALAVTLLERKGFTAADFQVFHPGGKLGQRLLKVTDLMHGGDGLPLVGTEASMADVLLVMTAKSLGCAGVIDSGGKLAGVLTDGDLRRHMSPDLLTAKAAEVMTASPRTVPPNLLAAEALRQMNERSITSLFVVESDGRPVGVLHVHDCLRAGLA
MGSDKIHHHHHHMDSVKLIDLSEMRDILRSVNPFPGRWSFITSVEYMLDSRLYVDSIGDDAKVVRATLGPHDRNILDFGTGSGVFAIALRQVLPELDISAVDTTDNKSQSHPDFSDGQAAAHQRLIYPPLAERFRISFNHYNGHLLPYPDGSFDAISAYAVIEHIPHEELDAAMREIARVLKDDGKLFVFKMPRKLALVEHVAGILGLGRHDTLYGDGEALRLFRSYGWKVEKTFKSNMVFDYPGWLTNRLYHPLKLIDRILYWSPWRLFAHHNNFVLRKLERPQL
MGSDKIHHHHHHMDSWNMKGSKMVDVNEITKYLPGFNCGACGYKRCDLFAEALLNKDVKLEDCPFLLRERFKENYEKLKEILKIKGKIKKEEKYIGVIDGYEADFLLKPLPNECSCRETLLIMDKKELKVGDYIRYRPLGCPIPHFAKIIDEYHGFYIIHVVGPSHRITGEKIEYKDVGIAIVVAFEGIVEGKVPEVGKTVKFIPKHCMMQKVHSGVVVQVEGKRVYIEGIDLKVF
MGSDKIHHHHHHMDTAPLLPSSIRDQFTREVVYLNTATCGLPPRVAHEATLAVERDRARGRLTLDIAHQAVERSRAAFARLVGVPVSRVAVGSQASFFVGLVAASLPPGATVVVAEEDFTSVTYPFLAATGRGVTVRPVPLDRIIDAVDTSVDLVSVSVVQSADGRIVDVPALLDAAATHGARVLLDTTQSSGWLPIPADRVDYLVCSAYKWLLGPRGACFFAGTDDALAELTPIAANWFAAEDITSAFYGTELRLASDARRFDLSPAWASCVGLAPALELLADLGEAALGAHNVALANRFCAALGLPPTDSAIVSVAVDAKAQQVLADAGIVAAMRAGRMRCAFHLSTDAADVDRAVEEIGPYLRDANLEEAVRVPGDR
MGSDKIHHHHHHMDTDLLKTFLEVSRTRHFGKAAENLYLTRSAVSFRVKQLESILGVALFERQRNNIQPTPAGERMLGHAEAVLTAWERAKQDVSLSQLQSTQLAIGAGPNIWDAYLQGYLQGLHVGLPGVALRTEVLPANAMTRQLMDRTLDIAISFDPPKLDQFELVQLGQINLLLVSSLKGQTGTAVLPGQYVKVDWGTAFNIVHAQEYASLPVPTLHTSSARIALDFILNNGGCAFLPEHLVQHALHSGELHHVSGASAISRNVYVAYWAENDRLAQIKQAIDFLRDDGSVFAHATI
MGSDKIHHHHHHMDTDLLRAFVTVAECEGFSAAGKVLHRTQSAVSLQIKRLEDQMGESLFERTSRSVVLTPPGGRLLPYARHILKLQDEARRVMGVDRQGELIRLGTSEEQASTYLPELLPRFAARFPEVRLEVSCSISGSLVHDFQEGLLDVALVVRHGPTQTGRLLGREPMVWVVAEDRAIDDWEILPLALNPEGCIFRAHAFAALGPTERRWDVRYSSRSPTGINLPVQAGLAATVKTPRSVPEGCRIVGEEEGLPPLGHVEIEMHRTPGHSSDAFVAFCDELEHIVTATDSLESLEYVAAEG
MGSDKIHHHHHHMDTDWSNLAVRLERLLERFERIIDRHDPVLPRDPAFFDGAIAFRWRRSGEQGTFEPVTHPHLPDPADLVGIDLVREDLIRNTAQFMDGYPANNVLLWGERGTGKSTCVKGMLRLFADRGLRLVEVQRDDLMSLPALIAALRSVPRRFILFCDDLSFGEGEGGYRELKALLEGSIEAKPTNILFYATSNRRHLLPERMEDNLSSEIHPEEAVSEKLSLADRFGMALGFYPFSQDVYLSIVERYAEKFALPMEREALRKEAHLWAMYRGSRSGRSARQFIDDLAGRLGVRLNDR
MGSDKIHHHHHHMDTMVSNSQTYLKILADLIKIKSVNDHELEVAEYLQDLFQENGIEAKILPLEGQRANLVAEIGEGAPVLAVSGHMDVVDPGNLAAWDNDPFTMTEKDGKLFGRGITDMKAGLAALVIAMIELKKQGLPKKGTIRLLATAGEEVGEEGSAAFYRDHYMEDAAGLLIAEPSTVYGTASEQKGSFDIKFTSKGTSVHSSTPEKGYNALVPLMQLLNEANTYFETIPAGEMGPVRFNIDVLNGGSQINSLPDLATALVNVRTIPEYDNNQVAKQIETFVKSYNANGAQINTDLIMNEFPIATSPSNQLVKIIQSLGKEYAGRDIVVAASPGITDASNLAKDKPHDFPFAVYGPGDGSQHQVNESLPKQMYLDFIEIYQKLFIEFLEK
MGSDKIHHHHHHMDVIIDKNSGYCFGVEFAIQMAEDEMATGEPLFCLGDIVHNSMEVERLAKKGLKIIDREELKKLSDCKVLIRAHGEPPETYQLALENNIELVDASCPVVLKLQNRVKASFDAIDSKDGQIVIYGQEGHAEVIGIAGQTGDKAIVITTEKDLDKIDFEKPVTLYSQTTKSTQGFYKMKDLIEARVAEAGKNVDENFEYNDSICRQVSNREPQLRKFSKEFDVVIFVSGKKSSNGKALYGVCKQENERSYFVENETEIEPSWIRATDNVGICGATSTPMWLMEKVQNYIQAHSWN
MGSDKIHHHHHHMEALRRRIETQVMSLTGLALGQLDLESPKGDPGLFGPHSISWRVHGDFPSMLVGGISALMLQLLHPLALAGVWDHSNFREDLLGRLRRTSQFISGTTFGATGDAEWLIDKVRTIHLQVTGTAPDGRPYAASDPDLLTWVHVAEVSRFLAAHLRYRNPRLPRAEQDAYYNEIALIAERLGARDVPRSCQQVEDYLQHIRPQLHCDARSHEVIRILLDAPAPSRLAQPVGKLMLHAGIDLLPGWAQALLGLQHGPLQQRLIRLGLRRTAPVLRWAMRDGSAHRAKRRMGID
